Results reported in article doi:10.1101/490516, “Molecular mechanism of the Orai channel activation” (bioRxiv, 2018).

Molecular target: the molecule itself
Experiment: crystal structure; 4.5 Å, molecular replacement with the closed Orai structure 4HKR; protein in NG/NM with POPC:POPE:POPG; sitting drop, 0.05 M NaCl, 0.02 M MgCl2, 0.1 M sodium citrate pH 6.5, 16%-20% PEG400, 17 °C

B1: dOrai-P288L channel (Drosophila melanogaster Orai, amino acids 132-341, C224S, C283T, P288L) (domain or fragment, UniProt Q9U6B8 132-341, looked up)
chain: SMSQSGEDLHSPTYLSWRKLQLSRAKLKASSKTSALLSGFAMVAMVEVQLDHDTNVPPGMLIAFAICTTLLVAVHMLALMISTCILPNIETVSNLHSISLVHESPHERLHWYIETAWAFSTLLGLILFLLEIAILCWVKFYDLSPPAAWSATVVLILVMIIFMAFAIHFYRSLVSHKYEVTVSGIRELEMLKEQMEQDHLEHHNNIRNNG
notes: Orai, Drosophila melanogaster, Uniprot Q9U6B8, amino acid residues 132-341 with C224S, C283T and P288L; codons optimized for Homo sapiens; pEG-BacMam vector; PreScission site and eGFP at the C-terminus, eGFP cleaved by 3C protease on the Ni-NTA beads; No His tag is described, though Ni-NTA beads were used; it probably left with the eGFP; also called dOrai1-P288L; open Orai channel; source: …
stoichiometry N: 6
